The Km is the concentration of substrate that gives half-maximal velocity. In general, Vmax refers to the top rate of the reaction or transport when substrate is in excess. Broadly, the kcat is the number of substrate molecules converted per active site and unit of time at saturation. A word on the kcat/Km: it is the turnover number divided by the Michaelis constant.

Consider 5 proteins from paper PMC11576661, “Biocatalytic sulfation of aromatic and aliphatic alcohols catalyzed by arylsulfate sulfotransferases” (Applied Microbiology and Biotechnology, 2024).

Assay in all cases: purified protein
Holding throughout (conditions): apparent, sulfate donor, acceptor phenol 100 mM, Tris/HCl 50 mM pH 8.0, 30 °C

Substrate in series [1]: O=[N+]([O-])c1ccc(OS(=O)(=O)O)cc1
It is filed as biochemical, Desulfosporosinus orientis.

Substrate in series [2]: O=[N+]([O-])c1ccc(OS(=O)(=O)O)cc1
It is filed as biochemical, Desulfitobacterium hafniense.

Substrate in series [3]: O=[N+]([O-])c1ccc(OS(=O)(=O)O)cc1
In kind it is biochemical, Dehalobacterium formicoaceticum.

Substrate in series [4]: O=[N+]([O-])c1ccc(OS(=O)(=O)O)cc1
It is filed as biochemical, Desulfitobacterium dehalogenans.

Substrate in series [5]: O=[N+]([O-])c1ccc(OS(=O)(=O)O)cc1
In kind it is biochemical, Hungatella effluvii.

B1: ASSTDor (Desulfosporosinus orientis DSM 765) (protein)
chain: MSVKFKSFDHIITEQYQAEQAFLTEYQKGEYSFNNPYVKLNPYIIAPLTALVMFKTAQPTTVTITVKGKDKNGDICFNFPTAIEHLIPVYGLYANYANKVELALGDGKTNVITIQTEAAPEIVKLPTQINTTADYFEDNIMFVSPTSTAATAGYDYNGDVRWYGSLNFAFDIKRAKNGRLLLGTHRLVTPPYHTTGLYEMGMIGKIYKEYRLPSGYHHDQFEMEDGNLLILSQDLPRGTVEDMCVLVDRKTGQIIKSWDYQKVLPTNAGGSGSQDSHDWFHNNAVWYDKKTNSLTLSGRHQDIIINLDFETGALNWIIGDPEGWPKELVDNYFFKPVGKGEFDWQYEQHACVVCPNGDIMAFDNGHWRSKIKENYVTANDNFSRGVRYRIDTKKMEIEQVWQYGKERGAEFFSTYICNVEYYDEGHYLIHSGGIGSIDGEALNKPPVQFRGEDEKKVVFNSITVELKDDVMMYEMQLPANYYRAEKLKLYAAEDVLTLGKGELLGTLGVTEEFTTIPPAEEGGMVPEKYNVKLGLEEDRLIFKATFEKGQMVLLQLEGETTHSYFVPTTKRPFLAMCVGTFQESDDRAVEFPVSREGLAGGFRVSLIVDAYKYETGVTIKL
notes: recombinant from E. coli BL21(DE3), C-terminal His-tag, IMAC purified, about 70-76 kDa
For the protein B1, in series [1], the Km came out at 1000 µM, the maximal velocity (Vmax) stood at 0.5 µmol/min/mg, the kcat amounted to 0.6 s⁻¹ and the kcat/Km turned out to be 600 M⁻¹ s⁻¹.

B2: ASSTC (Desulfitobacterium hafniense) (protein)
chain: MVDYEYCPHIITKQNELEKAFMEKFEAGNYSLENPLVILNPYGVAPLTAMILFNTPIACEAKIIVKGKEHPGDIQHTFPAATRHILPVYGLYGGYKNTIKIILSTSSSNTITIQTEPLPKSVAIPSSIKTTSEYMGNNLMFLSPSMASLTVGYDYAGDVRWYCSLNVCFDLKRMPNGHLLIGTGRLVKVPYYTSGLYEMAFSGKIFKEFILPGGYHHDQFVMEDGNLLVLTQDFYADTVEDVCVLIDPHSGDILKKWDFKNILPQDVAGSGTQTAHDWFHNNAVWYDNRTNSLTLSGRHQDVIINIDYETGGLNWMIGDPEGWPQELVDKYFFTPAGDGEFDWQYEQHGCVVLPDGDIMVFDNGHYRSKNKENYRLNKDNFSRGVRYRIDTERMTIQQIWQYGKERGADFFSPFICNVEYYDEGHYMVHSGGIGYENGKPCEGLAVGKSKNPKFKDNVYTLNSITCELVNDELVYELQVPANFYRAEKLPIYYANEVAELCEGQRLGQFVETQTTRMKIKALETKEPIPEHYQAKIVEEEDRFCLNAIYESGETAQLLLVSESDEILRYPINTVAQAYGAMCVGTFQKSDPRNVDTFVTKTGLSGKYQVKLVAEDKIYETGVTISA
notes: as for B1
In the case of B2, in series [2], the Km was 200 µM, the Vmax was 0.6 µmol/min/mg, the turnover number (kcat) turned out to be 0.7 s⁻¹ and the kcat/Km was 3600 M⁻¹ s⁻¹.

B3: ASSTDfor (Dehalobacterium formicoaceticum) (protein)
chain: MNAIKSEQVPHIIHQQEKLEKAFLAEFAAGGYTLYNPLVKINPYGICPLTAMVLFETPVATEATVVVRGKEHLGDIRHTFPAGKKHILPIYGLYADYENKIELIMANGQKNTIKIQTEPLHTDVPVATSIKTTPEYMGNNLMFLTAAMRSMPVGYDYAGDIRWYATKNFAFDLKRLPNGHILVGTERLVKMPYFTTGLYEMAFSGKIFKEYVLPSGYHHDQFPMEDGNILVLTFDFYSGTVEDMCVLLDAKTGEVLKSWDYKKVLPQDVAGSGSQDEHDWFHNNAVWYDKKTNSLSLSGRHQDAVINIDYETGELNWIIGDPEGWPKEMVDKYFFTPVGDGDFDWQYEQHACVVLPDGDIMLFDNGHFRAKNKENYWPNSKNFSRGVRYRIDTEKMTIKQVWQYGKERGAEFFSPYICNVEYYNEGHYLVHSGGIGYENGKPCEGMAVMKTMQPEFKDNVYTFNSITCELKDDVLMYELQVPANCYRAEKLPLYYANETAELGAGEILGNLIKTEETKMKIKAEETGALVPDHFQASITEEEDRFLFNAIFDAGEMAQLLLVNEAGEIKRYPINTVPQAFQAMCVGTFQKADPRNIDTFINKIGLSGNYQVKLVAEEKVYETGVTIKA
notes: as for B1
For the protein B3, in series [3], the Km was found to be 500 µM, the Vmax was 5.3 µmol/min/mg, the kcat worked out at 6.3 s⁻¹ and the kcat/Km was 12600 M⁻¹ s⁻¹.

B4: ASSTDdeh (Desulfitobacterium dehalogenans ATCC 51507) (protein)
chain: MMNPIKSEQIPHIIHRQKDFEEAFLAEFSAGHYTLANPLVELNPYEICPLTAMILFETPVSTEATIIVRGKEHPGDIRHTFPANKKHILPIYGLYADYENKVEIVLANGQRNTVTIKTGPLHPDVPVATSIKTTSEYMGNNLMFLTAAMKAMPVGYDYAGEVRWYATRNFAFDLKRIPNGHILIGTERLVKMPYFTTGLYEMAFSGKIFKEYRLPSGYHHDQFVMEDGNILVLTFDFYSGTVEDMCVLLDAETGEILKSWDYKKVLPQDVAGSGSQDAHDWFHNNAVWYDRKTNSLSLSGRHQDAVINIDYETGELNWIIGDPEGWPQDMVDQYFFTPVGEGEFDWQYEQHACVVLPDGDIMLFDNGHFRAKNKENYLPNSQNFSRGVRYRIDTEKMTIEQVWQYGKERGAEFFSPYICNVEYYDEGHYLVHSGGIGYENGETCEGMAVMKVLQPEFKDNVYTFNSITCELKDDVLMYELQVPANCYRAEKLPLYYAYETAELGEGKILGNLVETQETKMKIKAVETGERVPDHYEASITEEEDRILLNAIFDAGELAQLLLVDGDGGVKRYPISTVPQAFQAMCVGTFQKADPRNIDVYINKTGLSGKYQVKLIAEEKLYETGVSITA
notes: as for B1
In the case of B4, in series [4], the Michaelis constant (Km) came to 400 µM, the Vmax was 21.2 µmol/min/mg, the kcat was determined as 25.3 s⁻¹ and the kcat/Km is 63200 M⁻¹ s⁻¹.

B5: ASSTHeff (Hungatella effluvii) (protein)
chain: MIRYEKKNSLITQQAEAEQKFLETFEAGAYTASSPLVVRNPYLISPLSAMILFKTAVKQEVTLTVKGKEPEGDISHTFPADTIHILPVYGLYADCENTVELILSGGERETVMIKTEPLPPEVPVPTFCKGSGAHMGDNVIFLTQTSKADALACDYRGDVRWYLTVNVCFDMKRLANGHLLVGTDRLIKLPYYVSGVYEMGVHGKIYREYRLPGGYHHDTFEMEDGNILMLSQIPDRDTVEDVLVLVNRQTGAIVRTWDYREILPYDCQTTWSGSASAHDWFHNNAVWYDKKTDSITLSGRHQDAVINIDFKTGALNWILGDPEGWPEEYVEKYFFRPISEPFEWSYEQHGVVVCPDGDIMMFDNGHYRSKLKAHYSKAKDSYSRGVRYHIDREARTIEQVWQYGKERGADFFSPYICNVEYYDEGRYMVHSGGIAYKDGEPLEGLGSMDGTGEGCTLNAITCELVNDEVVYELHVPSNVFRAEKLPMYYAGETAELGAGKTLGSMSRTGEFETEIPAVCTGDLIPEHYEASVTEEEDRILFNATFEKGELAMLLLEEEDGKAHRYYINTSAAKNFEAMCVGTFLKNDPRNVDVYVNKCGMSKNVKVRVLLEDKIYETGVEIRME
notes: as for B1
For the protein B5, in series [5], the Km worked out at 2100 µM, the Vmax was determined as 39.8 µmol/min/mg, the kcat stood at 46.9 s⁻¹ and the kcat/Km is 22300 M⁻¹ s⁻¹.
